The supplement of paper PMC9732359
± gives the uncertainty stated by the source.

Assay: protein stability index of a GFP-peptide fusion (yeast GPS) (PSI 1-4); higher = more stable; sorted into four equal gates, so the index is relative within each strain
Conditions: san1∆
Summary of the method: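 Tiled yeast protein peptides of 17 residues were each joined downstream of GFP, on plasmids that also express Cherry. The pooled library was maintained in yeast, and mid-log cultures in leucine-free medium were sorted into four equal gates on the GFP/Cherry ratio. Plasmids from every gate were amplified by PCR and sequenced on Illumina, with barcodes linking reads to strains. The protein stability index of a peptide is its gate-number-weighted read frequency summed over the gates.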
For KEEVCQGMEGTVDLALF [YMR129W/POM152], the protein stability index was 3.26 ± 0.2. KEFDETIFNLPKNKLVP [FAS1] gave a protein stability index of 3.59 ± 0.085.

Same assay, conditions: ubr1∆
In the case of ILEDTATMSVFLQRIDF [RRI2], the protein stability index is reported as 2.59 ± 0.042. ILEDYCYFRDFEYCRID [ISW2] showed a protein stability index of 1.35 ± 0.038. Work on ILKRDFELVSDLSYIEF [ECM29] yielded a protein stability index of 2.76 ± 0.054. ILLTSISRERDLFTHLW [SRP68] gave a protein stability index of 2.73 ± 0.11. In the case of ILRMGAFRTIESKSDDN [RRI1], the protein stability index is reported as 2.56 ± 0.065. Work on ILSLEQSSRVVSLSQLL [YCS4] yielded a protein stability index of 1.85 ± 0.063. With ILVMETSEEQTKFLAKN [SWP82] the protein stability index was 3 ± 0.092. With IMGFISYHNGNLKGRPY [FAS2] the protein stability index was 3.01 ± 0.12. Sequence IMSTEAHVNKVTEETTK [SIR4] has a protein stability index of 2.85 ± 0.063. For INAKNIAFASNYGIVEL [RRP43], the protein stability index was 1.84 ± 0.051. With INDPTNKEYTLVHGIFG [SIN4] the protein stability index was 1.94 ± 0.19. For INDRNDRAIRKTCQWYS [DIS3], the protein stability index was 3.25 ± 0.12. INGEDPANNHQLGLQTV [SMX2] gave a protein stability index of 3.08 ± 0.06. INLNVDDDILIIRPILG [SRB4] gave a protein stability index of 3.21 ± 0.057. Work on INNPVNLTIHFGGEKGK [FAS1] yielded a protein stability index of 3.25 ± 0.069. In the case of INSIDTTESSDLKEGLQ [GRR1], the protein stability index is reported as 3.05 ± 0.032. INSPMPQQAQMQQAQFQ [SNF2] gave a protein stability index of 2.98 ± 0.083. INSSNEALVQAFAFCIP [YCG1] showed a protein stability index of 2.09 ± 0.041. For INYHQYISKAQNDQWSI [SSN2], the protein stability index was 2.73 ± 0.056. INYLLTLAITTVTNSKF [RPN2] showed a protein stability index of 2.67 ± 0.067. INYQVDSKLLPKNIEPP [SWI3] gave a protein stability index of 2.65 ± 0.066. For IPGLSAGVNNDNTKESK [RTT102], the protein stability index was 3.35 ± 0.081. Sequence IPNIPPNINTWQQVTAL [GAL11] has a protein stability index of 2.54 ± 0.12. For IPNQEVLQYSDWESDLH [YDL116W/NUP84], the protein stability index was 2.18 ± 0.057. IPNRRFTLWWSPTINRA [PRP8] showed a protein stability index of 2.29 ± 0.047. Sequence IPSPLSSTKPPGSVNSA [NUT1] has a protein stability index of 2.85 ± 0.044. For IPTTKNLRLLVEENRVR [DLS1], the protein stability index was 2.12 ± 0.061. Sequence IPVGLMAQENSMERKVQ [MCD1] has a protein stability index of 3.19 ± 0.1. For IQEIKESVELPLTHPEL [RPT2], the protein stability index was 2.75 ± 0.035. Sequence IQEQRVKDKQSKVSDDS [RPN8] has a protein stability index of 2.92 ± 0.13. For IQGISKMYSDDTLKDIS [BRN1], the protein stability index was 3.05 ± 0.17. Sequence IQIDEETENSESIASSN [MCD1] has a protein stability index of 2.76 ± 0.051. For IQPKITELKKKLDDLEN [SMC1], the protein stability index was 2.71 ± 0.14. In the case of IQSKRLRNKIAGYTTHL [RPS17A], the protein stability index is reported as 3.36 ± 0.072. With IRAIRKVISEILTKEVQ [RPS1A] the protein stability index was 1.966 ± 0.011. Work on IREIDVAGGKKALAIFV [RPS7A] yielded a protein stability index of 1.77 ± 0.066. Work on IRGSDQAIPKFQMNCYA [RPN2] yielded a protein stability index of 1.47 ± 0.11. With IRNINVQDALLTNQLYK [SNF2] the protein stability index was 3.24 ± 0.075. Work on IRNLTVFTMKELAQYMK [RGR1] yielded a protein stability index of 2.79 ± 0.08. Sequence IRNVLVTVDQYVNVAIS [SSN2] has a protein stability index of 1.39 ± 0.058. With IRSSSVSLVAEATSNTN [MED4] the protein stability index was 1.33 ± 0.036. With IRVAETRGGASALIENN [YJL039C/NUP192] the protein stability index was 2.89 ± 0.055. With ISDIPYVISLSYTDAQD [YMR129W/POM152] the protein stability index was 2.64 ± 0.06. For ISFAAFILADAGLEITS [RPP1B], the protein stability index was 1.9 ± 0.076. With ISLHENKLSGILADEMG [ISW2] the protein stability index was 2.44 ± 0.1. Work on ISLRNNHKIIARVKAFD [SMD2] yielded a protein stability index of 2 ± 0.041. Work on ISNINIPISSETTIDDL [SMC1] yielded a protein stability index of 1.85 ± 0.071. ISNNLALVFAALEHLKN [SRP68] showed a protein stability index of 2.09 ± 0.041. With ISPLMKSQYNMVLRNVM [SRB8] the protein stability index was 2.84 ± 0.11. Sequence ISSLIGGFEYFLQPLLL [NUT1] has a protein stability index of 1.38 ± 0.19. With ITGNKIMRILKSNGLAP [RPS13] the protein stability index was 2.91 ± 0.057. With ITHQGANSESGHYQAFI [UBP6] the protein stability index was 3.05 ± 0.079. In the case of ITHYAVRGGNIEIMGIL [RRI1], the protein stability index is reported as 2.25 ± 0.13. With ITIDSVVDANGCVNSLI [YMR129W/POM152] the protein stability index was 2.8 ± 0.06. In the case of ITLHPSFFGPRMKQYLK [RPB7], the protein stability index is reported as 2.02 ± 0.061. With ITSNHKSSVPGSAELRN [RPN3] the protein stability index was 2.63 ± 0.08. Sequence IVDPTAEQLKISLSVHT [RRP46] has a protein stability index of 2.04 ± 0.043. Sequence IVFVHSRKETSRTATWL [BRR2] has a protein stability index of 2.89 ± 0.077. Work on IVIDVDYNKKQDRIQDV [MED1] yielded a protein stability index of 3.09 ± 0.077. For IVNGQTFSYVDSSLQPE [YMR129W/POM152], the protein stability index was 2.06 ± 0.042. For IVNVLSKCLNLISDSNI [SWI3], the protein stability index was 2 ± 0.029. In the case of IVPLHSPFLMGHPMTKS [SEC65], the protein stability index is reported as 2.79 ± 0.055. Work on IVSKEYEKNFEATLESK [ESC2] yielded a protein stability index of 2.88 ± 0.18. IWDSQKFFIMIVKGNII [POP4] showed a protein stability index of 1.32 ± 0.083. In the case of IYDDWLDRISSYTAFSR [PRP8], the protein stability index is reported as 2.24 ± 0.039. Sequence IYKPLLFEIVSNADTNQ [SRB8] has a protein stability index of 1.49 ± 0.078. IYKSIFNVVDVGVDQLS [YJL039C/NUP192] gave a protein stability index of 3.05 ± 0.042. For IYNKMIGVLNNSSESDE [RPN13], the protein stability index was 2.94 ± 0.067. IYQHLASHNEKDQDSQI [SRP72] gave a protein stability index of 2.78 ± 0.099. Sequence IYQVPEKDLEHWLQLAK [POP1] has a protein stability index of 3.1 ± 0.099. For IYRDRSTFTKHLIKCFF [ITC1], the protein stability index was 2.26 ± 0.031. With IYRYKYKVMHQIRACKD [PRP8] the protein stability index was 1.99 ± 0.088. Work on KAAFLGSEVRLRDDTLP [COR1] yielded a protein stability index of 2.68 ± 0.05. KAALERLKVFEGIPPPY [RPL16A] gave a protein stability index of 2.69 ± 0.085. With KAELPQWYTLQSQLNVT [MED8] the protein stability index was 2.69 ± 0.056. Work on KAHPNFPIALQWTGGRG [FAS1] yielded a protein stability index of 2.01 ± 0.092. Sequence KAKIIPGNGKHASENIS [SIR4] has a protein stability index of 2.81 ± 0.12. Work on KAKRQINSGTNSANGSS [SSN3] yielded a protein stability index of 2.91 ± 0.046. Work on KALILAPTRELVQQIQK [PRP28] yielded a protein stability index of 3 ± 0.069. For KAPEAEQVLSAAATFPI [RPL13A], the protein stability index was 2.81 ± 0.04. Sequence KASELKLALGIALEGYR [RPN2] has a protein stability index of 2.56 ± 0.097. For KASTISRGAVSGQKAGL [RPL2A], the protein stability index was 2.87 ± 0.046. With KASVLEISPQDSIASVL [GAL11] the protein stability index was 3.13 ± 0.086. For KDFLKAVDKVISGYKKF [RPT1], the protein stability index was 3.33 ± 0.051. KDHLLLEEEFVSNSEIL [RPT2] gave a protein stability index of 2.74 ± 0.078. Sequence KDIAKRQFKEILTVKEE [RRP40] has a protein stability index of 2.52 ± 0.042. KDIIDPKLTSIFERMIE [RPN2] showed a protein stability index of 2.66 ± 0.1. KDLEIRKLEISSRFKHR [GAL11] showed a protein stability index of 2.81 ± 0.053. For KDLVTENAYDNPLADAE [PRE4], the protein stability index was 3.21 ± 0.063. Work on KDNECSSFEENNDLESV [RRI2] yielded a protein stability index of 3.34 ± 0.17. KDQRATTPYMTKYERAR [RPO26] showed a protein stability index of 3.04 ± 0.048. KDRFDIDEKSQFVETIV [RPN2] gave a protein stability index of 2.17 ± 0.059. With KDSVTECSKDMKEDGLS [SIR4] the protein stability index was 3.32 ± 0.049. Work on KDSYINANTIETAKMIE [FAS2] yielded a protein stability index of 3.16 ± 0.044. Sequence KDWTDTFVYILEKLIFD [SRB8] has a protein stability index of 1.93 ± 0.052. In the case of KDYEAKTKAMSLSIEEN [POP1], the protein stability index is reported as 2.95 ± 0.083. Work on KDYHTLANNVESKLRDD [RPS18A] yielded a protein stability index of 3.33 ± 0.088. KEAALKTMIKTIEKDKM [SMC2] showed a protein stability index of 2.03 ± 0.061. KEAFEEEIKQSARNYDK [SMC1] showed a protein stability index of 3.31 ± 0.056. With KEEFRLMISPKDEETTE [RRI2] the protein stability index was 1.5 ± 0.039. For KEFDETIFNLPKNKLVP [FAS1], the protein stability index was 3.07 ± 0.2.
